From patent US20190256585A1 (IMMUNEMED, published 2019)

B1: humanized virus suppressing factor wild-type (hzVSF_wt) (antibody, V domains shown)
VH: EVQLVQSGAEVKKPGASVKVSCKASGYTFTGYNMNWVRQAPGKGLEWMGNIDPYYGSTTYAQKFQGRVTMTVDKSISTAYMELSRLRSDDTAVYYCARETGTRAMDYWGQGTLVTVSS
VL: DIQMTQSPSSLSASVGDRVTITCRASENIYSNLAWYQQKPGKAPKLLIYVATNLADGVPSRFSGSGSGTDFTLTISSLQPEDFATYYCQHFYGSPRTFGGGTKVEIK
notes: also called hzVSF wild-type
B2: hzVSF_var1 (antibody, V domains shown)
VH: EVQLVQSGAEVKKPGASVKVSCKASGYTFTGYNMNWVRQAPGKGLEWMGNIDPYYGSTTYAQKFQGRVTMTVDKSISTAYMELSRLRSDDTAVYYCARETGTRAMDYWGQGTLVTVSS
VL: DIQMTQSPSSLSASVGDRVTITCRASENIYSNLAWYQQKPGKAPKLLIYVADNLADGVPSRFSGSGSGTDFTLTISSLQPEDFATYYCQHFYGSPRTFGGGTKVEIK
notes: Humanized IgG variant of hzVSF; constant regions not tied to this variant; also called hzVSF_1
B3: hzVSF_var11 (antibody, V domains shown)
VH: EVQLVQSGAEVKKPGASVKVSCKASGYTFTGYNMNWVRQAPGKGLEWMGNIDPYYGSDTYAQKFQGRVTMTVDTSASTAYMELSRLRSDDTAVYYCARETGTRAMDYWGQGTLVTVSS
VL: DIQMTQSPSSLSASVGDRVTITCRASENIYSNLAWYQQKPGKAPKLLIYVADNRGDGVPSRFSGSGSGTDFTLTISSLQPEDFATYYCQHFYGTPRTFGGGTKVEIK
notes: Humanized IgG variant of hzVSF; constant regions not tied to this variant
B4: hzVSF_var7 (antibody, V domains shown)
VH: EVQLVQSGAEVKKPGASVKVSCKASGYTFTGYNMNWVRQAPGKGLEWMGNIDPYYGSDTYAQKFQGRVTMTVDTSASTAYMELSRLRSDDTAVYYCARETGTRAMDYWGQGTLVTVSS
VL: DIQMTQSPSSLSASVGDRVTITCRASENIYSNLAWYQQKPGKAPKLLIYVATNLADGVPSRFSGSGSGTDFTLTISSLQPEDFATYYCQHFYGSPRTFGGGTKVEIK
notes: as for B3
B5: hzVSF_var3 (antibody, V domains shown)
VH: EVQLVQSGAEVKKPGASVKVSCKASGYTFTGYNMNWVRQAPGKGLEWMGNIDPYYGSTTYAQKFQGRVTMTVDKSISTAYMELSRLRSDDTAVYYCARETGTRAMDYWGQGTLVTVSS
VL: DIQMTQSPSSLSASVGDRVTITCRASENIYSNLAWYQQKPGKAPKLLIYVADNRGDGVPSRFSGSGSGTDFTLTISSLQPEDFATYYCQHFYGSPRTFGGGTKVEIK
notes: as for B3
B6: hzVSF_var13 (antibody, V domains shown)
VH: EVQLVQSGAEVKKPGASVKVSCKASGYTFTGYNMNWVRQAPGKGLEWMGNIDPYYGSDTYAQKFQGRVTMTVDKSISTAYMELSRLRSDDTAVYYCARETGTRAMDYWGQGTLVTVSS
VL: DIQMTQSPSSLSASVGDRVTITCRASENIYSNLAWYQQKPGKAPKLLIYVADNLADGVPSRFSGSGSGTDFTLTISSLQPEDFATYYCQHFYGSPRTFGGGTKVEIK
notes: constant regions not tied to this variant; also called hzVSF v13
B7: hzVSF_var5 (antibody, V domains shown)
VH: EVQLVQSGAEVKKPGASVKVSCKASGYTFTGYNMNWVRQAPGKGLEWMGNIDPYYGSDTYAQKFQGRVTMTVDKSISTAYMELSRLRSDDTAVYYCARETGTRAMDYWGQGTLVTVSS
VL: DIQMTQSPSSLSASVGDRVTITCRASENIYSNLAWYQQKPGKAPKLLIYVATNLADGVPSRFSGSGSGTDFTLTISSLQPEDFATYYCQHFYGSPRTFGGGTKVEIK
notes: as for B3
B8: hzVSF_var12 (antibody, V domains shown)
VH: EVQLVQSGAEVKKPGASVKVSCKASGYTFTGYNMNWVRQAPGKGLEWMGNIDPYYGSDTYAQKFQGRVTMTVDTSASTAYMELSRLRSDDTAVYYCARETGNRAMDYWGQGTLVTVSS
VL: DIQMTQSPSSLSASVGDRVTITCRASENIYSNLAWYQQKPGKAPKLLIYVADNRGDGVPSRFSGSGSGTDFTLTISSLQPEDFATYYCQHFYGTPRTFGGGTKVEIK
notes: as for B3
B9: hzVSF_var4 (antibody, V domains shown)
VH: EVQLVQSGAEVKKPGASVKVSCKASGYTFTGYNMNWVRQAPGKGLEWMGNIDPYYGSTTYAQKFQGRVTMTVDKSISTAYMELSRLRSDDTAVYYCARETGTRAMDYWGQGTLVTVSS
VL: DIQMTQSPSSLSASVGDRVTITCRASENIYSNLAWYQQKPGKAPKLLIYVADNRGDGVPSRFSGSGSGTDFTLTISSLQPEDFATYYCQHFYGTPRTFGGGTKVEIK
notes: as for B3
B10: hzVSF_var2 (antibody, V domains shown)
VH: EVQLVQSGAEVKKPGASVKVSCKASGYTFTGYNMNWVRQAPGKGLEWMGNIDPYYGSTTYAQKFQGRVTMTVDKSISTAYMELSRLRSDDTAVYYCARETGTRAMDYWGQGTLVTVSS
VL: DIQMTQSPSSLSASVGDRVTITCRASENIYSNLAWYQQKPGKAPKLLIYVADNLGDGVPSRFSGSGSGTDFTLTISSLQPEDFATYYCQHFYGSPRTFGGGTKVEIK
notes: as for B3
B11: hzVSF_var9 (antibody, V domains shown)
VH: EVQLVQSGAEVKKPGASVKVSCKASGYTFTGYNMNWVRQAPGKGLEWMGNIDPYYGSDTYAQKFQGRVTMTVDTSASTAYMELSRLRSDDTAVYYCARETGTRAMDYWGQGTLVTVSS
VL: DIQMTQSPSSLSASVGDRVTITCRASENIYSNLAWYQQKPGKAPKLLIYVADNRGDGVPSRFSGSGSGTDFTLTISSLQPEDFATYYCQHFYGSPRTFGGGTKVEIK
notes: as for B3
B12: hzVSF_var8 (antibody, V domains shown)
VH: EVQLVQSGAEVKKPGASVKVSCKASGYTFTGYNMNWVRQAPGKGLEWMGNIDPYYGSDTYAQKFQGRVTMTVDTSASTAYMELSRLRSDDTAVYYCARETGNRAMDYWGQGTLVTVSS
VL: DIQMTQSPSSLSASVGDRVTITCRASENIYSNLAWYQQKPGKAPKLLIYVATNLADGVPSRFSGSGSGTDFTLTISSLQPEDFATYYCQHFYGSPRTFGGGTKVEIK
notes: as for B3
B13: hzVSF_var6 (antibody, V domains shown)
VH: EVQLVQSGAEVKKPGASVKVSCKASGYTFTGYNMNWVRQAPGKGLEWMGNIDPYYGSTTYAQKFQGRVTMTVDTSASTAYMELSRLRSDDTAVYYCARETGTRAMDYWGQGTLVTVSS
VL: DIQMTQSPSSLSASVGDRVTITCRASENIYSNLAWYQQKPGKAPKLLIYVATNLADGVPSRFSGSGSGTDFTLTISSLQPEDFATYYCQHFYGSPRTFGGGTKVEIK
notes: as for B3
B14: hzVSF_var10 (antibody, V domains shown)
VH: EVQLVQSGAEVKKPGASVKVSCKASGYTFTGYNMNWVRQAPGKGLEWMGNIDPYYGSDTYAQKFQGRVTMTVDTSASTAYMELSRLRSDDTAVYYCARETGNRAMDYWGQGTLVTVSS
VL: DIQMTQSPSSLSASVGDRVTITCRASENIYSNLAWYQQKPGKAPKLLIYVADNRGDGVPSRFSGSGSGTDFTLTISSLQPEDFATYYCQHFYGSPRTFGGGTKVEIK
notes: as for B3
B15: mouse virus suppressing factor (mVSF) (antibody, V domains shown)
VH: EIQLQQSGAELVKPGASVKISCKASGYSFTGYNMNWVKQSHGKSLEWIGNIDPYYGSTTYNQKFKGKATLTVDKSSSTAYMQLNSLTSEDSAVYYCARETGTRAMDYWGQGTSVTVSS
VL: DIQMTQSPASLSASVGETVTMTCRASENIYSNLAWYQQKQGKSPQLLVYVATNLADGVPSRFSGSGSGTQFSLKINSLQPEDFGSYYCQHFYGSPRTFGGGTKLEIKR
notes: also called mouse VSF

Each binder was assayed against isolated peptide of SEQ ID NO: 1 (vimentin amino acid positions 142 to 294) (assay: method not described (refers to FIGS. 54 to 58)).
B1: binds. B2: binds. B3: binds. B4: binds. B5: binds. B6: binds. B7: binds. B8: binds. B9: binds. B10: binds. B11: binds. B12: binds. B13: binds. B14: binds.

What follows are binders tested against T1, VSF receptors on L929 cells infected with EMC-D virus (mouse, UniProt P20152 2-466) (assay: depletion of ligand from the culture supernatant of EMC-D-infected L929 cells (added minus recovered after 1 hour)).
T1 construct: also called receptors of hzVSF; VR
T1 sequence (P20152 2-466 limits assumed, form in doubt): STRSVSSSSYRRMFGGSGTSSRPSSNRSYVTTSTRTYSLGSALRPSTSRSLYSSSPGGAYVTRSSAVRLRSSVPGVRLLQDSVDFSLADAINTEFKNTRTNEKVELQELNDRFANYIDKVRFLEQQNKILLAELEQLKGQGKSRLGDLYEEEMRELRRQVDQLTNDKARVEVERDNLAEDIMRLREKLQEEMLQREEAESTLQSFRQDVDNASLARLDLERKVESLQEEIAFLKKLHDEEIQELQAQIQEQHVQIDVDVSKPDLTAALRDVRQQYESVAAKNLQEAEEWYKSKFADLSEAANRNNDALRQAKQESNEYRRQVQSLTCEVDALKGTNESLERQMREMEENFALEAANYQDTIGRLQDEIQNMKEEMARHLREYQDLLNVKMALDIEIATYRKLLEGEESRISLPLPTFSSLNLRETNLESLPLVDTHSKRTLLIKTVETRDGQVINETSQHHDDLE
Experimental: L929 cells were seeded at the amount of 6×10⁵ cells and infected with 2 MOI of EMC-D virus for 0, 2, 6, and 10 hours, respectively. […] The difference between the amount of each ligand added and the amount of the collected ligand after reaction is the amount of the ligand bound to the receptors, and based on the result, the affinity constant (Ka) and the dissociation constant (Kd) were calculated (Table 11).
B15 gave a Ka of 2.1e+10 M⁻¹ and a Kd of 0.047 nM. With B1 the Ka was 8.2e+09 M⁻¹ and the Kd was 0.12 nM. B6 was tested, and the Ka was 1.7e+10 M⁻¹ and the Kd was 0.059 nM.
